This series can be described thus: soluble on expression in E. coli; label from the status in PepcDB or PDB records.
With “MEGLLIHAVLRELEKELPAQNLGLAFPEEGTAAILLKGRTGRLFNLVLHYRPPTPSLALEPGRLQGEPKTPFQRQLQARVKGPLVEASQLKLDRVAFFRFAGEKGFVDAPPSVLVLEATGRNANLLLLDEEGRILGVDRVITKEVNRYRELRPGLPYTPPPPYRKLDPRTLAEEDLLPLLGKPLKEVIRHVDGVGQELLRELARRAGLTPETPLDEAGLGRVYRALKTLVEDPSLRTELSEELRRRWAEEEKEALRKPLLEALDREIRTLKARLGDYQEALERLEEAEALRRRADLLLARLKEVPKGAEKVVLEGFDGKPVEIPLDPALSPQENARKLYDRARRLEELAEKALDLIPKTEARIRELEAEKERLRTLDLEGLLALAQRPKGEKGLKVGLRYTSPSGFLVLVGRNAKENDLLTRAAHSEDLWFHAQGVPGSHVILKTEGKNPPLEDLLFAARLAAYHSKARGERQVPVDYTRKKHVWRPRKAAPGQVLYTQAKTLFVEGLLPEPREEA”, the “soluble on expression in E. coli” value was “soluble”.
Take “MYTFDTTDHKSPCCNFQWYIFRKQGESRIITCELFGVIVSLENRWDWLEFMIDDSLQLTAFRCPKRDKLGMETLLQLGDVAQVTGNWKLSNGAFLNATKIAIHNNPDVECKYWLQQIQKYKSKVCELEIPSDWIRRQQRAHNLKTDAVLSFSAQVSTAAATCWKLWKKHFNQGGKISLQRLWEVIQRENCPKMQELSSCRRNQIVQLLIHLGYLIPLSKEPETYVLLIDDILDKQVMQIFNQNIASKTLSLREVAYRLEEYFHVEEISLERVEESILRLAYKEKVEQV”: the “soluble on expression in E. coli” value was “not soluble”.
As to “MGYRNLPPHLNPLAPLALDDPPGWLTSFKLRRLTADQCASLLAEANRRRLIASRPVADSEGSCPLRNVVRVANFGSVQLSSSFLASCPLALSSALYIEQQAKPLTRQLMASDLRQIDHLGSFACRNIYHRQQARRSEHATADALDVSGFRLADGRRVSVLQGWRSETSRPWLAALLSSSCHYFGNALGPEYNAAHANHFHFGMRGQGFCFLEHHHHHH”, the “soluble on expression in E. coli” value is “not soluble”.
As for “MQGKALQDFVIDKIDDLKGQDIIALDVQGKSSITDCMIICTGTSSRHVMSIADHVVQESRAAGLLPLGVEGENSADWIVVDLGDVIVHVMQEESRRLYELEKLWS”, the entry is “soluble”; as for “MDDLSPDSALPPAGSAQDNDAPRQLVVCIDGTSNRFGDQPTNVVRLYRSLSRDPRRVLAYYDQGVGTFGLKETLFEWQKFPSRIAGLAFGWGLKRNVEGAYRFLAEHYRPGDQIFLFGFSRGAYAVRVLAAMLRAVGLIDAHQPHLFDYAWTLLTTRMPPRDEDKRAGTRRRGPDFGLLGRFRKVFGRQVKVHFLGLFDTVTSVGWVYDPLTVPYSSNNEMVDVVRQALAIDECRCFFRQNLWFGEKDRKSDVLQVWFPGMHSDVGGGYAPKDSRLALVAFTWMLGEALEAGLHVDPARSRDQLRARSKQGPDPTAPILPVMTRPWRLAEWLPLLVWDRRSGNRAWRWSRGRPRSRPLEPVGQETRVKLHRSVQRRLDECPDYRPCNLPALERCDLIDDSPLLDGYRLEHHHHHH”, “not soluble”.
Take “MGSDKIHHHHHHVVQKFNRLFGKSNKGVGIELAPERVNVVQLRKQRQGLKLETFTSVAVPEGVVTDGQITDPAAMAQLIQQALAESKIKTTRVATGVPGRDSIVRIIPVPTELDDKELREMVLNHEAGLYLPYPREEADVDYQKLDYFVDEDGIEKVHVLLVATRKEITDTYISTFEQAGLQIDVLEINSFALIRTIREQLRQFGPQEAAVLVDIEFDSTEIAIIVNGVPQFSRTVPIGTYQMQTALARAMSLPTSRDMELLHGMIIPPTPLDGGKTGVTEIDPGMAAILRVLGELTDELRRSIDFYLNQSENLEVAQILLAGPGGGLQQLDEFFTQRLSLPTTQIDPIGSLSLEVDTDKYPQVKRSGLAIVLGLGMREV”: the “soluble on expression in E. coli” value is on record as “not soluble”.
For the sequence “MAENFQLPYLSLQNEKVDMVFDLFNKTIRNGEKVTFAFSGGKDSTTLAILFYEWLKIRHDIECTITLLHNDTSSEIDPMENWARNFMTSYKTEIEDITEGRVKINIDIRTPKVIDTFYWRMLIRGYPAPSFNFRWCVHLLKEKPANLDSIEETMFTGLREAESSERRILMRKKYGNSCSASPGGCMAYYYSTEGKGNKVAPMRDWTDGDVWSFLTLYRNTGGINISPIFMLYPNPKVRYGCWHCTLASVQWGLQSLGGGLEYFEAVRILYRKFSDLPYLRIKKNTGYSKLGPLNAAGRALMLKSIALAEDLSNVKLYGLDINLLEGKSIRDILFNLDPKEATALIKKYDPNIPRFRYIPIDKIRNIQKYKELALRALIDVKRNCANDKAYILLDTKLENPLITLLNRIEDLLS”, the “soluble on expression in E. coli” value is reported as “not soluble”.
Regarding “MAKRVYLLSEARGLSRDLLGGKGHGLAEMAAAGLPVPPAFIVTTEACRQYLKAGEVPGLWGEVRAGMAALEGLTGKRFGRGEGKAPPLLVSVRSGAPVSMPGMMDTVLNLGLTLEGVEALARATGNPRFAWDSLRRLLAMYGEVVLGEGPEVFEGMLSALKAERGVGTDAALGPEDLEELAYRYLRHLEARGTPFPLDPWAQLQGAIEAVFRSWQNPRARTYRRIYGIPEDLGTAVVVQAMVFGNLGEDSGTGVGFTRNPATGEKGLYGEYLRNAQGEDVVAGVRTPEPLERLKGYAPGLYEELLQVAERLERHFRDMQDFEFTVERGRLFLLQTRAGKRTAQAAVRIAVEMAEEGLISREEAVMRVEANALPGLLRPSVDRDQAPRPLLKGLPASPGAAVGHAAFTNEAVERFHAQGLPAVLVRPETTPEDITGMYLAKGILTARGGLTSHAAVVARGLGVPAVVGAEALRVFPGEGRALAEGVEIREGDLLTLDGGTGEVYLGAVPLVEAGGEALLEKLLSWAEPHRRLGVRANADTPEDAQRARAFGAEGIGLCRTEHMFFREDRLPWVRRLILAETPEEEALALERLFHFQKEDFKEILRAMDGLPVTVRLLDPPLHEFLPPLEALARRAEEGDEEAGRLLRRAEALKEANPMLGFRGARLLLLRPGVFRMQLRALLEAARELKEAGHDPRPEVMVPLVADPKEVERARALAEELFREYGPIPFGTMVETPRAALLAAEIAPLVDFFSFGTNDLTQMAFGLSRDDAGKFLPRYVEEGLFPFDPTERLDEKGVGRLLRMAAEEGRKANPRLKLGLCGEHGGEAGSVRFVADLLDYTSASPFRVLTARLAAAQAGLSRALKPA”, the “soluble on expression in E. coli” value is on record as “soluble”.
As for “SVTIDHTTENAAPAQAPVSDRAWALFRALDGKGLVPDGYVEGWKKTFEEDFSPRRGAELVARAWTPRRGAELVARAWTDPEFRQLLLTDGTAAVAQYGYLGPQGEYIVAVEDTPTLKNVIVCSLCSCTAWPILGLPPTWYKSFEYRARVVREPRKVLSEMGTEIASDIEIRVYDTTAETRYMVLPQRPAGTEGWSQEQLQEIVTKDCLIGVAIPQVPTV”, the “soluble on expression in E. coli” value is “soluble”.
As to “GMTDWQQALDRHVGVGVRTTRDLIRLIQPEDWDKRPISGKRSVYEVAVHLAVLLEADLRIATGATADEMAQFYAVPVLPEQLVDRLDQSWQYYQDRLMADFSTETTYWGVTDSTTGWLLEAAVHLYHHRSQLLDYLNLLGYDIKLDLFE”, the “soluble on expression in E. coli” value is reported as “soluble”.
Regarding “MSLTAPRILMTRPDHYGVTYAINPWMTPESWAGNQTVALAEAATQWQALADALGAVGFALEILPGQPGLPDMVFPANAAIVFDGIALVARFRHPERQGEEAHFHAAFEALRQRGLLSAVHSLPEGVFQEGAGDCLWDASRQLFFAAHGPRSSRASIEVIAETFGQEIVRLELVDPRFYHLDTCFCVLPGGEVLTFTPALSTASLERLRAVVAPEMLIEADFAAASAFSINAVAHGREVVMANPPASLRALLEERGYHVHGLELGRFMQSGGGSYCMTLRLDRRARAEGHHHHHH”, the “soluble on expression in E. coli” value is on record as “soluble”.
Take “MSLFRIQLRTMSSKTCKSDYPKEFVSFLNSSHSPYHTVHNIKKHLVSNGFKELSERDSWAGHVAQKGKYFVTRNGSSIIAFAVGGKWEPGNPIAITGAHTDSPALRIKPISKRVSEKYLQVGVETYGGAIWHSWFDKDLGVAGRVFVKDAKTGKSIARLVDLNRPLLKIPTLAIHLDRDVNQKFEFNRETQLLPIGGLQEDKTEAKTEKEINNGEFTSIKTIVQRHHAELLGLIAKELAIDTIEDIEDFELILYDHNASTLGGFNDEFVFSGRLDNLTSCFTSMHGLTLAADTEIDRESGIRLMACFDHEEIGSSSAQGADSNFLPNILERLSILKGDGSDQTKPLFHSAILETSAKSFFLSSDVAHAVHPNYANKYESQHKPLLGGGPVIKINANQRYMTNSPGLVLVKRLAEAAKVPLQLFVVANDSPCGSTIGPILASKTGIRTLDLGNPVLSMHSIRETGGSADLEFQIKLFKEFFERYTSIESEIVVEGHHHHHH”: the “soluble on expression in E. coli” value is “soluble”.
As for “MNEIQKYIAANEPKIMEDLFSLIRIPSISALPEHHDDMLACAQRWAQLLLEAGVDEALVMPSKGNPIVFAQKIVDPNAKTVLVYAHYDVMPAEPLELWKSQPFEPEVRDGYIWARGADDDKGQSFIQVKAFEYLVKNELLKNNVKFIFEGEEEIGSPSLEAFCEEHKELLKADVILVSDTSMLGAELPSLTTGLRGLAYWEIEVTGPNRDLHSGHFGGAVANPINVLCEIISKVTDKDGRITVPGFYDDVEEVPQAEREMIAHIPFDEKKYKEAIGVKELFGEKGYSTLERNSCRPSFDVCGIWGGYTGEGSKTVLPSKAYAKVSCRLVAHQDHHKISQMFADYILQMAPDTVQVKVTPMHGGQGYVCPISLPAYQAAEKGFEIAFGKKPLAVRRGGSIPIISTFEQVLGTKTVLMGFGLESDAIHSPNENFSLDIFRKGIEAVIEFHQEYAKR”, the “soluble on expression in E. coli” value is “not soluble”.
As for “MESNEDVERLLCQKYPGLAAELQPSGACIIRGVLGSEDTWRRLKLYLPHHPALHGFQLYVQESLEYKLYTSANLKLQDDWLLEDFLDHLPKILPAQKAPTVPKELCREGNIYYDILALYKSNEYCLQVDEACSMIRFSEFTDFEQHYLELKIPSLLLLDHSLPDCVSLGEMLTKSAGNLEEALNLFRKLLEDLRPFYDNFMDIDELCHVLQPSPISSKHKTRLFPLKDRVYLKLTIADPFACIASMSLKIIGPTEEVARLRHVLSDGLSNWDSEMNIHKNLLRMFDLCYFPMPDWSDGPKLDEEDNEELRCNICFAYRLDGGEVPLVSCDNAKCVLKCHAVCLEEWFKTLMDGKTFLEVSFGQCPFCKAKLSTSFAALLND”, the “soluble on expression in E. coli” value is “soluble”.
Take “MIEISTSATSTTVTIEGDLDLSTRPQFHAATAKLGAVRRPLLVIDASRITFLDSTGAAFLISLADATRKRGGAAVLRGADERVLFVLETCGALDFFRLDPEPGLQEGDGGTRLRG”: the “soluble on expression in E. coli” value was “not soluble”.
“MKIFIVGSTGRVGKSLLKSLSTTDYQIYAGARKVEQVPQYNNVKAVHFDVDWTPEEMAKQLHGMDAIINVSGSGGKSLLKVDLYGAVKLMQAAEKAEVKRFILLSTIFSLQPEKWIGAGFDALKDYYIAKHFADLYLTKETNLDYTIIQPGALTEEEATGLIDINDEVSASNTIGDVADTIKELVMTDHSIGKVISMHNGKTAIKEALESLLEHHHHHH”: the “soluble on expression in E. coli” value is listed as “soluble”.
As for “MSCQGPVCTNLGLKPGQRLTVKGIIAPNAKSFVMNLGKDSTHLGLHFNPRFDAHGDVNLIVCNSKKMEEWGTEQRETVFPFQKGAPIEITFSINPSDLTVHLPGHQFSFPNRLGLSVFDYFDTHGDFTLRSVSWE”, the “soluble on expression in E. coli” value is “soluble”.
Turning to “MGSSHHHHHHSSGLVPRGSHMASGTSKDASGGSSSGKEVLEFYHGYHHSEDEWPVAKTMRDLYDKFAEEHKDSGVEFKPTPVNGDLKDIMNNKVASGEFPDVIDLAGNAVSLAAIEQKLVLDLKPYIDSNKLEKNVGLNYKQNQKDGKIYTVHEQLFTMGLWYNKDIFAKAGAKTPDQWNTWDDFTQAMASIRKQDGVYAFGAGEPSIRLFNTVLGTTENGRKLLDKPLTKEGIESKEFADALKMVMKEIQANGSKNAGGDANAYSKDFQEGKSAVFFNGVWASGEMSKNPSLAPGIYPAGVAISSSGGGITISSKMSEAKQKLALEFLKYMTSDDVQKVIFEKVGANPSNENVNVKELSEKSSEATTKILGQAITQVKNAKAVVPTVSDVWGGDVHTAIINALTESAAENVDVDQKVKSTQDVLKSLIG”, the “soluble on expression in E. coli” value is given as “soluble”.

(Values after the DeepSol protein solubility set.)
